The text below walks through data of FireProtDB.

B1: Alpha-lactalbumin, P00712 (parent)
chain: MMSFVSLLLVGILFHATQAEQLTKCEVFQKLKDLKDYGGVSLPEWVCTAFHTSGYDTQAIVQNNDSTEYGLFQINNKIWCKDDQNPHSRNICNISCDKFLDDDLTDDIVCAKKILDKVGINYWLAHKALCSEKLDQWLCEKL

The variants in the data set derive from B1. The settings on record: Capra hircus; pH 7; 25 °C; GdnHCl; CD; sodium cacodylate 50 mM; NaCl 50 mM; reversible: yes; structure 1HFY; whole UniProt chain shown.

For the variant T48I, the “ddG of mutation (higher = less stable)” value was -4.4 kcal/mol, the denaturant m value was 2.6 kcal/mol/M, the “denaturant midpoint (higher = more stable)” value (from here on “denaturant midpoint”) is 3.93 M and the unfolding free energy came out at 10.1 kcal/mol.
In the case of A49I, the “ddG of mutation (higher = less stable)” value is -2.4 kcal/mol, the denaturant m value came to 2.7 kcal/mol/M, the “denaturant midpoint” value was found to be 3.01 M and the unfolding free energy is 8.1 kcal/mol.
As for A49T, the “ddG of mutation (higher = less stable)” value is -1.7 kcal/mol, the denaturant m value worked out at 3.1 kcal/mol/M, the “denaturant midpoint” value stood at 2.44 M and the unfolding free energy was determined as 7.4 kcal/mol.
Taken in the same sequence, the figures for A49I T52I were -0.4 kcal/mol, 2.1 kcal/mol/M, 2.85 M and 6.1 kcal/mol.
On to T52I, for which the “ddG of mutation (higher = less stable)” value is 1.1 kcal/mol, the denaturant m value is 2 kcal/mol/M, the “denaturant midpoint” value came out at 2.31 M and the unfolding free energy was determined as 4.6 kcal/mol.
